One block for each substance: values may come before it.
Columns and labels:
HLA-Cw*1402 (human) = HLA-Cw*1402 (human) (UniProt P10321); test: Luminex beads; MAb 1/100; PBS only
HLA-Cw*0801 (human) = HLA-Cw*0801 (human) (UniProt P10321); test: Luminex beads; MAb 1/100; PBS only
HLA-Cw*0501 (human) = test: Luminex beads; MAb 1/100; PBS only
HLA-B*5101 (human) = test: Luminex beads; MAb 1/100; PBS only
HLA-B*3801 (B38) (human) = test: Luminex single-antigen beads; MEM-E/02 1/600; serum Mi114 1/100
HLA-A*3301 (A33) (human) = test: as above
HLA-A*3201 (A32) (human) = test: as above
HLA-B*3901 (B39) (human) = HLA-B*3901 (B39) (human) (UniProt P01889); test: as above
HLA-B*5801 (B58) (human) = test: as above
HLA-B*4801 (B48) (human) = HLA-B*4801 (B48) (human) (UniProt P01889); test: as above
HLA-B*5901 (B59) (human) = test: as above
[1] = biological target: HLA-Cw*1802 (Cw18) (human) (UniProt P10321); test: as above
HLA-B*5001 (B50) (human) = test: as above
HLA-B*1801 (B18) (human) = test: as above
HLA-B*5201 (B52) (human) = test: as above
[2] = biological target: HLA-Cw*0401 (Cw4) (human); test: as above
HLA-Cw*0304 (human) = test: as above
HLA-B*5301 (B53) (human) = test: as above
HLA-A*2402 (A24) (human) = HLA-A*2402 (A24) (human) (UniProt P04439); test: as above
HLA-B*2708 (B27) (human) = HLA-B*2708 (B27) (human) (UniProt P01889); test: as above
HLA-B*5401 (B54) (human) = HLA-B*5401 (B54) (human) (UniProt P01889); test: as above
HLA-B*1301 (B13) (human) = test: as above
HLA-B*1511 (B75) (human) = HLA-B*1511 (B75) (human) (UniProt P01889); test: as above
HLA-B*4403 (B44) (human) = test: as above
[3] = biological target: HLA-Cw*1502 (Cw15) (human); test: as above
HLA-B*1401 (B64) (human) = HLA-B*1401 (B64) (human) (UniProt P01889); test: as above
HLA-A*2901 (A29) (human) = HLA-A*2901 (A29) (human) (UniProt P04439); test: as above
[4] = biological target: HLA-Cw*0801 (Cw8) (human) (UniProt P10321); test: as above
HLA-A*2601 (A26) (human) = test: as above
HLA-A*2403 (A24) (human) = test: as above
[5] = biological target: HLA-Cw*1701 (Cw17) (human); test: as above
HLA-B*4501 (B45) (human) = test: as above
[6] = biological target: HLA-Cw*1203 (Cw12) (human) (UniProt P10321); test: as above
HLA-B*0801 (B8) (human) = HLA-B*0801 (B8) (human) (UniProt P01889); test: as above
HLA-B*1513 (B77) (human) = test: as above
HLA-A*3002 (A30) (human) = HLA-A*3002 (A30) (human) (UniProt P04439); test: as above
HLA-A*2501 (A25) (human) = test: as above

MFI (HLA-Cw*1402 (human)): 3470 MFI
MFI (HLA-Cw*0801 (human)): 5890 MFI
MFI (HLA-Cw*0501 (human)): 7180 MFI
MFI (HLA-B*5101 (human)): 2210 MFI
Substance: murine monoclonal antibody (MAb) MEM-E/02

% inhibition (HLA-B*3801 (B38) (human)): 76%
MFI (HLA-B*3801 (B38) (human)): 929 MFI
MFI (HLA-A*3301 (A33) (human)): < 500 MFI
MFI (HLA-A*3201 (A32) (human)): 742 MFI
MFI (HLA-B*3901 (B39) (human)): 530 MFI
% inhibition (HLA-B*5801 (B58) (human)): 37%
MFI (HLA-B*5801 (B58) (human)): 2110 MFI
MFI (HLA-B*4801 (B48) (human)): 969 MFI
MFI (HLA-B*5901 (B59) (human)): 930 MFI
MFI [1]: < 500 MFI
MFI (HLA-B*5001 (B50) (human)): < 500 MFI
MFI (HLA-B*1801 (B18) (human)): < 500 MFI
% inhibition (HLA-B*5201 (B52) (human)): 88%
MFI [2]: < 500 MFI
MFI (HLA-Cw*0304 (human)): < 500 MFI
MFI (HLA-B*5301 (B53) (human)): < 500 MFI
MFI (HLA-A*2402 (A24) (human)): < 500 MFI
% inhibition (HLA-B*2708 (B27) (human)): 29%
MFI (HLA-B*2708 (B27) (human)): 2260 MFI
% inhibition (HLA-B*5401 (B54) (human)): 95%
MFI (HLA-B*5401 (B54) (human)): 990 MFI
MFI (HLA-B*1301 (B13) (human)): < 500 MFI
MFI (HLA-B*1511 (B75) (human)): < 500 MFI
MFI (HLA-B*4403 (B44) (human)): < 500 MFI
MFI [3]: < 500 MFI
MFI (HLA-B*1401 (B64) (human)): < 500 MFI
MFI (HLA-A*2901 (A29) (human)): < 500 MFI
MFI [4]: < 500 MFI
MFI (HLA-A*2601 (A26) (human)): < 500 MFI
MFI (HLA-A*2403 (A24) (human)): < 500 MFI
MFI [5]: < 500 MFI
MFI (HLA-B*4501 (B45) (human)): < 500 MFI
MFI [6]: < 500 MFI
MFI (HLA-B*0801 (B8) (human)): < 500 MFI
MFI (HLA-B*1513 (B77) (human)): 1550 MFI
MFI (HLA-A*3002 (A30) (human)): 803 MFI
MFI (HLA-A*2501 (A25) (human)): < 500 MFI
Substance: murine monoclonal antibody MAb MEM-E/02
